To fix the notation:
B1: peptide HD2 (from tick evasin EVA4) / CCL1 (biotinylated, synthetic) (parent complex)
chain 1: EEDDYTAYAPLTCYFT
chain 2: KSMQVPFSRCCFSFAEQEIPLRAILCYRNTSSICSNEGLIFKLKRGKEACALDTVGWVQRHRKMLRHCPSKRK

In the test the parent is B1.
As for chain 1 P10W, the enrichment was -5.49 log2 (difference from the parental peptide).
As to chain 1 P10D, the enrichment is -1.68 log2 (difference from the parental peptide).
Next, chain 1 P10V: -9.61 log2 (difference from the parental peptide).
Next, chain 1 P10E: -5.54 log2 (difference from the parental peptide).
Next, chain 1 Y5N: -6.94 log2 (difference from the parental peptide).
As to chain 1 L11K, the enrichment was -0.661 log2 (difference from the parental peptide).
Next, chain 1 L11M: 2.12 log2 (difference from the parental peptide); chain 1 L11H: -1.29 log2 (difference from the parental peptide).
Next, chain 1 T12L: -0.228 log2 (difference from the parental peptide); chain 1 T12H: -0.868 log2 (difference from the parental peptide).
chain 1 T12M: the enrichment was -0.791 log2 (difference from the parental peptide).
Next, chain 1 T12D: -0.0823 log2 (difference from the parental peptide).
Next, chain 1 T12F: -1.45 log2 (difference from the parental peptide); chain 1 T12K: -1.81 log2 (difference from the parental peptide).
Next, chain 1 D4E: -2.17 log2 (difference from the parental peptide); chain 1 D4M: -5.27 log2 (difference from the parental peptide); chain 1 A7T: -3.41 log2 (difference from the parental peptide).
For chain 1 A7Y, the enrichment is -2.42 log2 (difference from the parental peptide).
Next, chain 1 A7V: -4.61 log2 (difference from the parental peptide); chain 1 A7K: 2.4 log2 (difference from the parental peptide); chain 1 A7Q: 2.46 log2 (difference from the parental peptide).
Next, chain 1 A7P: -0.46 log2 (difference from the parental peptide); chain 1 A7D: 0.378 log2 (difference from the parental peptide); chain 1 A7S: -0.477 log2 (difference from the parental peptide).
Next, chain 1 T6S: 4.57 log2 (difference from the parental peptide).
As to chain 1 T6L, the enrichment was -3.32 log2 (difference from the parental peptide).
Next, chain 1 T6A: 2.46 log2 (difference from the parental peptide); chain 1 T6K: -3.59 log2 (difference from the parental peptide).
chain 1 T6M: the enrichment is -2.14 log2 (difference from the parental peptide).
As for chain 1 D3H, the enrichment was -3.87 log2 (difference from the parental peptide).
Turning to chain 1 D3P, the enrichment is -2.66 log2 (difference from the parental peptide).
Next, chain 1 D3L: -3.89 log2 (difference from the parental peptide); chain 1 D3Q: -3.22 log2 (difference from the parental peptide); chain 1 D3M: -2.32 log2 (difference from the parental peptide).
Turning to chain 1 C13F, the enrichment is -7.86 log2 (difference from the parental peptide).
With chain 1 C13Q, the enrichment was -7.02 log2 (difference from the parental peptide).
Next, chain 1 C13W: -8.88 log2 (difference from the parental peptide); chain 1 C13M: -7.16 log2 (difference from the parental peptide); chain 1 E1S: -1.56 log2 (difference from the parental peptide).
Next, chain 1 E1N: -1.4 log2 (difference from the parental peptide).
In the case of chain 1 E1A, the enrichment was -1.47 log2 (difference from the parental peptide).
Next, chain 1 E1V: -1.48 log2 (difference from the parental peptide).
Next, chain 1 Y14H: -5.22 log2 (difference from the parental peptide); chain 1 Y14S: -6.58 log2 (difference from the parental peptide).
Next, chain 1 Y14A: -7.68 log2 (difference from the parental peptide); chain 1 Y14C: -6.55 log2 (difference from the parental peptide); chain 1 A9R: -5.43 log2 (difference from the parental peptide).
For the variant chain 1 A9L, the enrichment is -6.22 log2 (difference from the parental peptide).
Next, chain 1 A9N: -5.08 log2 (difference from the parental peptide); chain 1 A9G: -5.92 log2 (difference from the parental peptide).
chain 1 A9I: the enrichment was -6.64 log2 (difference from the parental peptide).
Next, chain 1 A9P: -5.04 log2 (difference from the parental peptide).
Next, chain 1 A9Q: -0.52 log2 (difference from the parental peptide); chain 1 A9W: -3 log2 (difference from the parental peptide); chain 1 A9V: -7.56 log2 (difference from the parental peptide).
Next, chain 1 A9T: -4.64 log2 (difference from the parental peptide); chain 1 Y8W: -3.69 log2 (difference from the parental peptide).
For chain 1 Y8A, the enrichment is -8 log2 (difference from the parental peptide).
Next, chain 1 Y8I: -5.15 log2 (difference from the parental peptide); chain 1 E2W: -0.836 log2 (difference from the parental peptide); chain 1 E2N: -2.76 log2 (difference from the parental peptide).
Consider chain 1 E2P, for which the enrichment was -5.28 log2 (difference from the parental peptide).
Consider chain 1 E2M, for which the enrichment was -2.13 log2 (difference from the parental peptide).
Turning to chain 1 E2T, the enrichment is -2.76 log2 (difference from the parental peptide).
Next, chain 1 E2D: 1.47 log2 (difference from the parental peptide).
Next, chain 1 T16Y: -0.704 log2 (difference from the parental peptide); chain 1 T16D: 2.85 log2 (difference from the parental peptide).
For the variant chain 1 T16R, the enrichment was -4.51 log2 (difference from the parental peptide).
Next, chain 1 F15P: -0.0179 log2 (difference from the parental peptide).
Next, chain 1 F15R: -0.358 log2 (difference from the parental peptide); chain 1 F15D: -3.07 log2 (difference from the parental peptide).
Consider chain 1 F15I, for which the enrichment is 2.23 log2 (difference from the parental peptide).
Next, chain 1 F15G: -3.15 log2 (difference from the parental peptide).
Next, chain 1 F15Q: 0.462 log2 (difference from the parental peptide).
Next, chain 1 F15M: 1.5 log2 (difference from the parental peptide).
